PMC10286367

B1: mouse full-length p65-HA [mouse] / glycogen synthase kinase 3β (Gsk3β) [mouse (endogenous in hippocampal tissue)] (parent)
chain 1: MDDLFPLIFPSEPAQASGPYVEIIEQPKQRGMRFRYKCEGRSAGSIPGERSTDTTKTHPTIKINGYTGPGTVRISLVTKDPPHRPHPHELVGKDCRDGYYEADLCPDRSIHSFQNLGIQCVKKRDLEQAISQRIQTNNNPFHVPIEEQRGDYDLNAVRLCFQVTVRDPAGRPLLLTPVLSHPIFDNRAPNTAELKICRVNRNSGSCLGGDEIFLLCDKVQKEDIEVYFTGPGWEARGSFSQADVHRQVAIVFRTPPYADPSLQAPVRVSMQLRRPSDRELSEPMEFQYLPDTDDRHRIEEKRKRTYETFKSIMKKSPFNGPTEPRPPTRRIAVPTRNSTSVPKPAPQPYTFPASLSTINFDEFSPMLLPSGQISNQALALAPSSAPVLAQTMVPSSAMVPLAQPPAPAPVLTPGPPQSLSAPVPKSTQAGEGTLSEALLHLQFDADEDLGALLGNSTDPGVFTDLASVDNSEFQQLLNQGVSMSHSTAEPMLMEYPEAITRLVTGSQRPPDPAPTPLGTSGLPNGLSGDEDFSSIADMDFSALLSQISS
chain 2: MSGRPRTTSFAESCKPVQQPSAFGSMKVSRDKDGSKVTTVVATPGQGPDRPQEVSYTDTKVIGNGSFGVVYQAKLCDSGELVAIKKVLQDKRFKNRELQIMRKLDHCNIVRLRYFFYSSGEKKDEVYLNLVLDYVPETVYRVARHYSRAKQTLPVIYVKLYMYQLFRSLAYIHSFGICHRDIKPQNLLLDPDTAVLKLCDFGSAKQLVRGEPNVSYICSRYYRAPELIFGATDYTSSIDVWSAGCVLAELLLGQPIFPGDSGVDQLVEIIKVLGTPTREQIREMNPNYTEFKFPQIKAHPWTKVFRPRTPPEAIALCSRLLEYTPTARLTPLEACAHSFFDELRDPNVKLPNGRDTPALFNFTTQELSSNPPLATILIPPHARIQAAASPPANATAASDTNAGDRGQTNNAASASASNST

Assays:
[1] = variants of: B1; experiment: co-IP with Gsk3β followed by WB, band quantification; conditions: with glycogen synthase kinase 3β (Gsk3β) [mouse (endogenous in hippocampal tissue)]; p65-HA variant co-expressed with Ogt-Flag and Gsk3β; n = 3 independent experiments; parent: 1; read off a plot
[2] = variants of: B1; experiment: co-IP with HA (p65) followed by WB, band quantification; conditions: with glycogen synthase kinase 3β (Gsk3β) [mouse (endogenous in hippocampal tissue)]; p65-HA variant co-expressed with Ogt-Flag and Gsk3β; n = 3 independent experiments; parent: 1; read off a plot

Variant	response (relative protein level (HA / Gsk3β)) [1]	response (relative protein level (Gsk3β / HA)) [2]
chain 1 S396A	1	1.1
chain 1 S384A	2.4	2.1

Other lines, results leading:

response (relative protein level (HA / Gsk3β)) [1]	response (relative protein level (Gsk3β / HA)) [2]	Variant
1	1.1	chain 1 S370A
1.1	1	chain 1 S374A
